# Experimental data published in US12472269B2, “Liver-specific inducible promoters and methods of use thereof” (ASKBIO INC., priority 2019, dated 2025).
# B1: PB1-3-MinTK: promoter: 4 mouse PBREM elements with MinTK minimal promoter, SEQ ID NO: 12 (nucleic acid)
# DNA: TCTGTACTTTCCTGACCTTGGCACAGTGCCACCATCAACTTGCCTGACACCCATTACTCGCATCCATTCTCTCTGTACTTTCCTGACCTTGGCACAGTGCCACCATCAACTTGCCTGACACCGCACTGAAGGTCCTCAATCGTCTGTACTTTCCTGACCTTGGCACAGTGCCACCATCAACTTGCCTGACACCCTGACCTCCTGCCAGCAATATCTGTACTTTCCTGACCTTGGCACAGTGCCACCATCAACTTGCCTGACACCGCTGGGAGTTCGTAGACGGAGATCCGGCCCCGCCCAGCGTCTTGTCATTGGCGAATTCGAACACGCAGATGCAGTCGGGGCGGCGCGGTCCGAGGTCCACTTCGCATATTAAGGTGACGCGTGTGGCCTCGAACACCGAGCGACCCTGCAGCGACCCGCTTAACAGCGTCAACAGCGTGCCGCAGATCTCGAGGAGCTTGGCGAGATTTTCAGGAGCTAAGGAAGCTAAAC
# modifications: PB1-3-MinTk
# B2: PB1-1-SV40: promoter: 2 mouse PBREM elements with SV40 minimal promoter, SEQ ID NO: 13 (nucleic acid)
# DNA: TCTGTACTTTCCTGACCTTGGCACAGTGCCACCATCAACTTGCCTGACACCCATTACTCGCATCCATTCTCTCTGTACTTTCCTGACCTTGGCACAGTGCCACCATCAACTTGCCTGACACCGCTGGGAGTTCGTAGACGGACTAGCCCGGGCTCGAGATCTGCGATCTGCATCTCAATTAGTCAGCAACCATAGTCCCGCCCCTAACTCCGCCCATCCCGCCCCTAACTCCGCCCAGTTCCGCCCATTCTCCGCCCCATCGCTGACTAATTTTTTTTATTTATGCAGAGGCCGAGGCCGCCTCGGCCTCTGAGCTATTCCAGAAGTAGTGAGGAGGCTTTTTTGGAGGCCTAGGCTTTTGCAAAAAGCTTGGCATTCCGGTACTGTTGGTAAAGCCACCC
# modifications: PB1-1-SV40
# B3: PB1-2-SV40: promoter: 3 mouse PBREM elements with SV40 minimal promoter, SEQ ID NO: 14 (nucleic acid)
# DNA: TCTGTACTTTCCTGACCTTGGCACAGTGCCACCATCAACTTGCCTGACACCCATTACTCGCATCCATTCTCTCTGTACTTTCCTGACCTTGGCACAGTGCCACCATCAACTTGCCTGACACCGCACTGAAGGTCCTCAATCGTCTGTACTTTCCTGACCTTGGCACAGTGCCACCATCAACTTGCCTGACACCGCTGGGAGTTCGTAGACGGACTAGCCCGGGCTCGAGATCTGCGATCTGCATCTCAATTAGTCAGCAACCATAGTCCCGCCCCTAACTCCGCCCATCCCGCCCCTAACTCCGCCCAGTTCCGCCCATTCTCCGCCCCATCGCTGACTAATTTTTTTTATTTATGCAGAGGCCGAGGCCGCCTCGGCCTCTGAGCTATTCCAGAAGTAGTGAGGAGGCTTTTTTGGAGGCCTAGGCTTTTGCAAAAAGCTTGGCATTCCGGTACTGTTGGTAAAGCCACCC
# modifications: PB1-2-SV40
# B4: PB1-1-MinTK: promoter: 2 mouse PBREM elements with MinTK minimal promoter, SEQ ID NO: 10 (nucleic acid)
# DNA: TCTGTACTTTCCTGACCTTGGCACAGTGCCACCATCAACTTGCCTGACACCCATTACTCGCATCCATTCTCTCTGTACTTTCCTGACCTTGGCACAGTGCCACCATCAACTTGCCTGACACCGCTGGGAGTTCGTAGACGGAGATCCGGCCCCGCCCAGCGTCTTGTCATTGGCGAATTCGAACACGCAGATGCAGTCGGGGCGGCGCGGTCCGAGGTCCACTTCGCATATTAAGGTGACGCGTGTGGCCTCGAACACCGAGCGACCCTGCAGCGACCCGCTTAACAGCGTCAACAGCGTGCCGCAGATCTCGAGGAGCTTGGCGAGATTTTCAGGAGCTAAGGAAGCTAAAC
# modifications: PB1-1-MinTk (2xPBREM)
# B5: PB1-CMV-MP: promoter: 1 mouse PBREM element with CMV minimal promoter, SEQ ID NO: 8 (nucleic acid)
# DNA: TCTGTACTTTCCTGACCTTGGCACAGTGCCACCATCAACTTGCCTGACACCGCTGGGAGTTCGTAGACGGAGCGATTAATCCATATGCAGGTCTATATAAGCAGAGCTCGTTTAGTGAACCGTCAGATCGCCTAGATACGCCATCCACGCTGTTTTGACCTCCATAGAAGATCGCCACCC
# modifications: PB1-CMV-MP
# B6: PB1-3-CMV: promoter: 4 mouse PBREM elements with CMV minimal promoter, SEQ ID NO: 18 (nucleic acid)
# DNA: TCTGTACTTTCCTGACCTTGGCACAGTGCCACCATCAACTTGCCTGACACCCATTACTCGCATCCATTCTCTCTGTACTTTCCTGACCTTGGCACAGTGCCACCATCAACTTGCCTGACACCGCACTGAAGGTCCTCAATCGTCTGTACTTTCCTGACCTTGGCACAGTGCCACCATCAACTTGCCTGACACCCTGACCTCCTGCCAGCAATATCTGTACTTTCCTGACCTTGGCACAGTGCCACCATCAACTTGCCTGACACCGCTGGGAGTTCGTAGACGGAGCGATTAATCCATATGCAGGTCTATATAAGCAGAGCTCGTTTAGTGAACCGTCAGATCGCCTAGATACGCCATCCACGCTGTTTTGACCTCCATAGAAGATCGCCACCC
# modifications: PB1-3-CMV
# B7: PB1-2-CMV: promoter: 3 mouse PBREM elements with CMV minimal promoter, SEQ ID NO: 17 (nucleic acid)
# DNA: TCTGTACTTTCCTGACCTTGGCACAGTGCCACCATCAACTTGCCTGACACCCATTACTCGCATCCATTCTCTCTGTACTTTCCTGACCTTGGCACAGTGCCACCATCAACTTGCCTGACACCGCACTGAAGGTCCTCAATCGTCTGTACTTTCCTGACCTTGGCACAGTGCCACCATCAACTTGCCTGACACCGCTGGGAGTTCGTAGACGGAGCGATTAATCCATATGCAGGTCTATATAAGCAGAGCTCGTTTAGTGAACCGTCAGATCGCCTAGATACGCCATCCACGCTGTTTTGACCTCCATAGAAGATCGCCACCC
# modifications: PB1-2-CMV
# B8: PB1-SV40-MP: promoter: 1 mouse PBREM element with SV40 minimal promoter, SEQ ID NO: 9 (nucleic acid)
# DNA: TCTGTACTTTCCTGACCTTGGCACAGTGCCACCATCAACTTGCCTGACACCGCTGGGAGTTCGTAGACGGACTAGCCCGGGCTCGAGATCTGCGATCTGCATCTCAATTAGTCAGCAACCATAGTCCCGCCCCTAACTCCGCCCATCCCGCCCCTAACTCCGCCCAGTTCCGCCCATTCTCCGCCCCATCGCTGACTAATTTTTTTTATTTATGCAGAGGCCGAGGCCGCCTCGGCCTCTGAGCTATTCCAGAAGTAGTGAGGAGGCTTTTTTGGAGGCCTAGGCTTTTGCAAAAAGCTTGGCATTCCGGTACTGTTGGTAAAGCCACCC
# modifications: PB1-SV40-MP
# B9: PB1-3-SV40: promoter: 4 mouse PBREM elements with SV40 minimal promoter, SEQ ID NO: 15 (nucleic acid)
# DNA: TCTGTACTTTCCTGACCTTGGCACAGTGCCACCATCAACTTGCCTGACACCCATTACTCGCATCCATTCTCTCTGTACTTTCCTGACCTTGGCACAGTGCCACCATCAACTTGCCTGACACCGCACTGAAGGTCCTCAATCGTCTGTACTTTCCTGACCTTGGCACAGTGCCACCATCAACTTGCCTGACACCCTGACCTCCTGCCAGCAATATCTGTACTTTCCTGACCTTGGCACAGTGCCACCATCAACTTGCCTGACACCGCTGGGAGTTCGTAGACGGACTAGCCCGGGCTCGAGATCTGCGATCTGCATCTCAATTAGTCAGCAACCATAGTCCCGCCCCTAACTCCGCCCATCCCGCCCCTAACTCCGCCCAGTTCCGCCCATTCTCCGCCCCATCGCTGACTAATTTTTTTTATTTATGCAGAGGCCGAGGCCGCCTCGGCCTCTGAGCTATTCCAGAAGTAGTGAGGAGGCTTTTTTGGAGGCCTAGGCTTTTGCAAAAAGCTTGGCATTCCGGTACTGTTGGTAAAGCCACCC
# modifications: PB1-3-SV40
# B10: PB1-1-CMV: promoter: 2 mouse PBREM elements with CMV minimal promoter, SEQ ID NO: 16 (nucleic acid)
# DNA: TCTGTACTTTCCTGACCTTGGCACAGTGCCACCATCAACTTGCCTGACACCCATTACTCGCATCCATTCTCTCTGTACTTTCCTGACCTTGGCACAGTGCCACCATCAACTTGCCTGACACCGCTGGGAGTTCGTAGACGGAGCGATTAATCCATATGCAGGTCTATATAAGCAGAGCTCGTTTAGTGAACCGTCAGATCGCCTAGATACGCCATCCACGCTGTTTTGACCTCCATAGAAGATCGCCACCC
# modifications: PB1-1-CMV
# System: AXOL ARE-hepatocytes
# Assay: Luciferase expression from PBREM promoters in AXOL ARE-hepatocytes, induction by CITCO
# Type: cell-based, human
# Settings: for induced luciferase expression as a ratio to CMV-IE: induction with CITCO, mean of 3 biological replicates
# From the text: Axol Assay-Ready Expanded (ARE) Hepatocytes are primary human hepatocytes that have been expanded in vitro. Large batch sizes (up to 2000 vials) are available, ensuring a reliable, ready-to-use and consistent source of primary hepatocytes. ARE Hepatocytes express CYP enzymes, are metabolically functional, are polarized and can be infected by the Hepatitis C virus. AXOL ARE-hepatocytes express CAR negating the need to transfect with a CAR-expressing plasmid.
# • AXOL assay-ready expanded (ARE) hepatocytes (Axol, ax3701) • ARE hepatocyte thawing medium (Axol, ax3705) • ARE maintenance medium (Axol, ax3710) • Virimer red transfection reagent (Lipocalyx, VR04-02-15) • CITCO, lucifierase, β-galactosidase and BCA kits as described above
# ARE hepatocytes were cultured and transfected as described in the manufacturer's manual. 200,000 cells were seeded in 2 ml culture medium in collagen-coated 6 well plate. The cells were incubated for 4 h at 37° C. and 5% CO2 for sufficient adhesion. 200 μl of transfection mixture containing the DNA to be transfected (PB1-MinTK/PB1-CMV/PB1-SV40 operably linked with luciferase and β-galactosidase containing promoter) was added and the cells were incubated on an orbital shaker at 100 rpm for three hours at 37° C. and 5% CO2. 3 hrs after transfection CITCO was added to the appropriate wells. Cells were incubated under static conditions at 37° C. and 5% CO2 overnight and in the morning the medium was replaced with fresh ARE Hepatocyte Maintenance Medium. Readout was 24 hrs after induction. […]
# [1] = single PBREM element, minimal promoters compared
Molecule,induced luciferase expression as a ratio to CMV-IE,other results
B1,2.66,–
B2,2.6,–
B3,3.6,–
B4,1.5,–
B5,–,expression level compared to CMV-IE (1 μM CITCO): 10%; expression driven [1]: little to no expression
B6,2.67,–
B7,2.67,–
B8,–,"expression level compared to CMV-IE (1 μM CITCO): 55%; induction of luciferase expression (1 μM CITCO, readout 24 hrs after induction): around 7 fold; background level [1]: higher background level; expression driven [1]: highest expression"
B9,2.57,–
B10,1.9,–
